Consider 1 substance from patent publication EP0702725B1.

In assay [1] the target is recombinant human GIF secreted by COS-1 cells co-transfected with SRα-hcGIF and SRα-hfurin (human). In words: absorption on 388F1-Sepharose, acid elution; 12H5 GIF bioassay.
Assay [2] concerns the target bovine serum albumin (BSA) (bovine) (UniProt P02769). The assay is described as follows: same ELISA, control wells.
Assay [3] has as its target flow-through fraction from 110BH3-Sepharose of the culture supernatant of anti-CD3-stimulated AC5 cells. The assay is described as follows: ELISA on wells coated with the flow-through fraction from 110BH3-Sepharose; biotinylated 388F1, amplification system.
Assay [4] has as its target recombinant human GIF secreted by COS-1 cells co-transfected with SRα-hcGIF and SRα-hfurin (human). In words: absorption on 388F1-Sepharose; titration of GIF bioactivity in the fractions.
The target of assay [5] is PLA2-binding GIF (antigen-binding GIF) from anti-CD3-stimulated human T-cell hybridoma AC5 (human).

UniProt P02769, sequence (P02769 25-607 limits assumed): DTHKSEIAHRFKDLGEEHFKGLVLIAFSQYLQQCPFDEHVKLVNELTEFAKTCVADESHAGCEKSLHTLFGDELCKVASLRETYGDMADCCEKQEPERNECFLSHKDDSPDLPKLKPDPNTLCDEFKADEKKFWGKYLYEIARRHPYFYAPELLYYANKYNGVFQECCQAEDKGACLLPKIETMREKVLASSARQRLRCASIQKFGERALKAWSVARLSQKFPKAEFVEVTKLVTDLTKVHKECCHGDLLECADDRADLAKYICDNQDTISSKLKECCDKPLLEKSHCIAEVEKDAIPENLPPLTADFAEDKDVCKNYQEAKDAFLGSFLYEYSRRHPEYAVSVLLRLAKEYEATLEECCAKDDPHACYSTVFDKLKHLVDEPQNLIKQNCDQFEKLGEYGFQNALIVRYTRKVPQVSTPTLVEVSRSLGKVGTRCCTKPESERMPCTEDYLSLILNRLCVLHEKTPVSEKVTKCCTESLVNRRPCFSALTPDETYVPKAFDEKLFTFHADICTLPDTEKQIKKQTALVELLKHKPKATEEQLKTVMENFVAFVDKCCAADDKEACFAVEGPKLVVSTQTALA

For the substance “monoclonal anti-human GIF antibody 388F1 (ATCC HB 10472)”, in assay [1], the GIF activity recovered in the acid eluate fraction is over 75%. The ELISA control (nonspecific binding to BSA-coated wells, OD 410) in assay [2] is 0.1 OD 410. Besides, the ELISA signal (absorption at 490 nm) (absorbance 490 nm) was 0.36 in assay [3] and 0.86 in assay [5]. Further, the GIF activity of the flow-through relative to the eluate fraction in assay [4] was under 0.1 fold.
